The values below come from paper PMC9798971, “Alarming and Calming: Opposing Roles of S100A8/S100A9 Dimers and Tetramers on Monocytes” (Advanced Science, 2022).

The target of one test is T1, murine S100A9 (murine, UniProt P31725 1-113).
T1 construct: S100A9 (MRP14), murine; also called MRP14
T1 sequence (looked up): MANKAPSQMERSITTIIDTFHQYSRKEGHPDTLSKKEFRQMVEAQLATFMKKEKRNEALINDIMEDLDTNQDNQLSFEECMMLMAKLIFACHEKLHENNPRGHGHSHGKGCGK
Description: reconstitution by refolding together, anion exchange chromatography; equal amounts of the two purified proteins mixed with 1 mM DTT, denatured at pH 2, renatured by stepwise increase of pH to 7.4; residual homodimers separated by anion exchange chromatography. The following applies: both partners purified.

In a further test the target is T2, murine S100A9-N70A (murine, UniProt P31725 1-113, N70A).
T2 sequence (looked up): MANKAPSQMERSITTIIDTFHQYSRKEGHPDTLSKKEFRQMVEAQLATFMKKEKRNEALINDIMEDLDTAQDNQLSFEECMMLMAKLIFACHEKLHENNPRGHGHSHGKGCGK
The test is described as above. The conditions noted are these: both partners purified.

Test [1] addresses T3, S100A8/S100A9-tetramer (murine) (murine, UniProt P27005 1-89; P31725 1-113).
T3 chain 1: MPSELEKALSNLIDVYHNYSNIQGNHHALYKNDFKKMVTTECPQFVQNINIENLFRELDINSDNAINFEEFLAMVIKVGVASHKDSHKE
T3 chain 2: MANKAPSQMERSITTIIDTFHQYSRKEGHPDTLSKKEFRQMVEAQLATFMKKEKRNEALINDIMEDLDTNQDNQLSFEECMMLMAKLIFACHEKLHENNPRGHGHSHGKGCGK
Briefly: ELISA. For orientation: In an ELISA, binding on a coated surface is turned into a signal by an enzyme label.

B1: murine S100A8 (natural protein, UniProt P27005 1-89, looked up)
chain: MPSELEKALSNLIDVYHNYSNIQGNHHALYKNDFKKMVTTECPQFVQNINIENLFRELDINSDNAINFEEFLAMVIKVGVASHKDSHKE
notes: S100A8 (MRP8), murine; also called MRP8
B1: the binding result in the test with murine S100A9 and in the test with murine S100A9-N70A was “binds” in each case.

B2: recombinant mouse CD69, His-tagged extracellular domain (domain or fragment)
chain: NVGKYNCPGLYEKLESSDHHVATCKNEWISYKRTCYFFSTTTKSWALAQRSCSEDAATLAVIDSEKDMTFLKRYSGELEHWIGLKNEANQTWKWANGKEFNSWFNLTGSGRCVSVNHKNVTAVDCEANFHWVCSKPSR
One may read the Kd as the constant that tells how readily two partners part at equilibrium. Read a low Kd as a tighter complex. B2 showed a Kd in test [1] of 5.06 nM.
